Data on seven molecules can be found in patent publication US20200138960A1 (KUNSHAN XINYUNDA BIOTECH, published 2020).

The target in experiment [1] is T1, TfR1 (human, Sino Biological Inc.) (human, UniProt P02786 89-760).
T1 construct: Bought protein; the catalogue number printed for it (11020-MM02) is the same as that printed for the anti-TfR1 primary antibody, so the construct cannot be told; also called TfFR1; receptor TfR1
Nature of the experiment: ELISA value converted by purity of target protein. (An ELISA detects its analyte on a solid surface through an enzyme-linked reagent.)

Experiment [2] addresses T1, TfR1 (human, Sino Biological Inc.). The experiment can be described thus: ELISA, protein coated at 20 ug/mL, 2 ug/mL TfR1, anti-TfR1 detection.
Experiment [3] has as its target T2, human Transferrin Receptor 1 (TfR1) on cells (human, UniProt P02786 1-760).
T2 construct: whole, on cells; Endogenous receptor on human cell lines; also called receptor TfR1 on hCMEC/D3 cells; TfR1 on U87-MG cells
Nature of the experiment: flow cytometry on hCMEC/D3 cells according to Example 1b. For orientation: Flow cytometry measures light scatter and fluorescence of single cells or particles in a stream.

T1 sequence (P02786 89-760 limits assumed): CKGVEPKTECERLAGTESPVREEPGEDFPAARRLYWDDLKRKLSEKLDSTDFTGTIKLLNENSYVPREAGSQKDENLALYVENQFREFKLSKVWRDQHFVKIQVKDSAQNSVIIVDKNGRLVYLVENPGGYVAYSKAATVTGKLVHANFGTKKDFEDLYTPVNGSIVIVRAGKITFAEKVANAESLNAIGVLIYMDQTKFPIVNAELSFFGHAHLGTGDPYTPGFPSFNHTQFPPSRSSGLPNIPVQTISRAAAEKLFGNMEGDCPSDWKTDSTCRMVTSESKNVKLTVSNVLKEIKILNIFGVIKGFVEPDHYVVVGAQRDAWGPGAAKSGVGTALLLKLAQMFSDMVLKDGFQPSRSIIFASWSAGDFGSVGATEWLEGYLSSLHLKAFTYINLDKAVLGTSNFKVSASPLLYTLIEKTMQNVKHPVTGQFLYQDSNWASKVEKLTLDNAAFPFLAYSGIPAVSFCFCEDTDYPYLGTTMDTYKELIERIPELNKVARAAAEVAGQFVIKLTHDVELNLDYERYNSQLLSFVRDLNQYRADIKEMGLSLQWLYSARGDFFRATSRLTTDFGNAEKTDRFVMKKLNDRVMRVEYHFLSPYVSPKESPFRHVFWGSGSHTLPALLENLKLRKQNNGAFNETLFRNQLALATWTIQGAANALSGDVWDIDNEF
T2 sequence (P02786 whole entry): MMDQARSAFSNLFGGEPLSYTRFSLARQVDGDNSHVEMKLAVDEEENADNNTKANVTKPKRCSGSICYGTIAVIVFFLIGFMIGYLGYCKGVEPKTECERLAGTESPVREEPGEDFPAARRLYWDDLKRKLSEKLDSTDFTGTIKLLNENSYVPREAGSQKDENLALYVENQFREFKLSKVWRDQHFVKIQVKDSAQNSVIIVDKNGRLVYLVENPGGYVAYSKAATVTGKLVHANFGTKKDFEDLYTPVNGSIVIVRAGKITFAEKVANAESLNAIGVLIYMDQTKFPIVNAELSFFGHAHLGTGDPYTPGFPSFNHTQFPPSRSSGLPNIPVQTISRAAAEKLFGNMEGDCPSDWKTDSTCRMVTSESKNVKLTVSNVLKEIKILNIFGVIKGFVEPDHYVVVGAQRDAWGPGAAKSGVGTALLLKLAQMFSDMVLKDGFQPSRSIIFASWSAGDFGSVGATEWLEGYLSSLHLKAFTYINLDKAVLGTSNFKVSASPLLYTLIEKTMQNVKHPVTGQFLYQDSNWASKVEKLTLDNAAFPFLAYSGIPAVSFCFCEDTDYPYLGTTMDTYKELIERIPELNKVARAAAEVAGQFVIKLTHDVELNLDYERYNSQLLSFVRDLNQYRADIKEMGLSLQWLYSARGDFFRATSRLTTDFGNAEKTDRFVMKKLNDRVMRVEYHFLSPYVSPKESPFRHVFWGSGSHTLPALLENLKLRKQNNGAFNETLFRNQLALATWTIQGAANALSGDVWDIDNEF

B1: C-loop (designed binder)
chain: MSSQIRQNYSTDVEAAVNSLVNLYLQASYTYLSLGFYFDRDDVALEGVSHFFRELAEEKREGYERLLKMQNQRGGRALFQDIKKPDCDEWESGLNAMECALHLEKKLNQALLDLHALGSARTDPHLCDFLETHFLDEEVKLIKKMGDHLTNLRKMGAPEAGLGEYLFERLTLKHD
Take B1: the “Converted ELISA value” in experiment [1] was determined as 0.71. The ELISA value in experiment [2] was 0.31 OD630.

B2: C terminal (designed binder)
chain: MSSQIRQNYSTDVEAAVNSLVNLYLQASYTYLSLGFYFDRDDVALEGVSHFFRELAEEKREGYERLLKMQNQRGGRALFQDIKKPAEDEWESGLNAMECALHLEKKLNQALLDLHALGSARTDPHLCDFLETHFLDEEVKLIKKMGDHLTNLRKMGAPEAGLGEYLFERLTLKHD
On to B2, for which the “Converted ELISA value” in experiment [1] worked out at 0.17. In experiment [2], this molecule returned an ELISA value of 0.1 OD630.

B3: N-loop (designed binder)
chain: MSSQIRQNYHQDSEAAVNRQINLYLQASYTYLSLGFYFDRDDVALEGVSHFFRELAEEKREGYERLLKMQNQRGGRIFLQDIKKPDCDEWGKTPDAMKAAMALEKKLNQALLDLHKLATDKNDPHLCDFLETHFLDEEVKLIKKMGDHLTNLHRLGGPEAGLGEYLFERLTLKHD
notes: expressed in E. coli from PET22b; Purity of target protein 77.1%; also called N-loop modified protein
Take B3: the “Converted ELISA value” in experiment [1] was determined as 1.52. Also, the ELISA value in experiment [2] came out at 1.17 OD630.

B4: N terminal (designed binder)
chain: MSSQIRQNYHQDSEAAVNRQINLYLQASYTYLSLGFYFDRDDVALEGVSHFFRELAEEKREGYERLLKMQNQRGGRIFLQDIKKPAEDEWGKTPDAMKAAMALEKKLNQALLDLHKLATDKNDPHLCDFLETHFLDEEVKLIKKMGDHLTNLHRLGGPEAGLGEYLFERLTLKHD
B4: the “Converted ELISA value” in experiment [1] was determined as 1.3. This molecule came in with an ELISA value in experiment [2] of 0.88 OD630.

B5: chimeric human H-ferritin (designed binder)
chain: MTSQVRQNYHQDSEAAINRQINLELYASYVYLSMSYYFDRDDVALEGVSHFFRELAEEKREGYERLLKMQNQRGGRIFLQDIKKPDCDDWESGLNAMECALHLEKNVNQSLLELHKLATDKNDPHLCDFLETHFLDEEVKLIKKMGDHVTNLRKMGAPESGLAEYLFERLTLKHD
notes: FITC-labelled in the cell assays; also called chimeric human H-ferritins
With B5, in experiment [3], the binding result is given as “binds”.

B6: NC-loop (designed binder)
chain: MSSQIRQNYHQDSEAAVNRQINLYLQASYTYLSLGFYFDRDDVALEGVSHFFRELAEEKREGYERLLKMQNQRGGRIFLQDIKKPDCDEWESGLNAMECALHLEKKLNQALLDLHKLATDKNDPHLCDFLETHFLDEEVKLIKKMGDHLTNLRKMGAPEAGLGEYLFERLTLKHD
Consider B6, for which the “Converted ELISA value” in experiment [1] came out at 2.02. This molecule also displayed an ELISA value in experiment [2] of 1.23 OD630.

B7: NC fusion (designed binder)
chain: MSSQIRQNYHQDSEAAVNRQINLYLQASYTYLSLGFYFDRDDVALEGVSHFFRELAEEKREGYERLLKMQNQRGGRIFLQDIKKPAEDEWESGLNAMECALHLEKKLNQALLDLHKLATDKNDPHLCDFLETHFLDEEVKLIKKMGDHLTNLRKMGAPEAGLGEYLFERLTLKHD
For B7, the “Converted ELISA value” in experiment [1] stood at 1.14. In experiment [2], the ELISA value amounted to 1.03 OD630.
